Results taken from patent publication US20200171068A1, “COMPOSITIONS COMPRISING APTAMERS AND NUCLEIC ACID PAYLOADS AND METHODS OF USING THE SAME” (Children's National Medical Center, priority 2017, published 2020).

Key:
[1] = tested on: hematopoiesis; assay: Carboplatin-induced myelosuppression in mice; assay type: in vivo, mouse
Method: For xenograft models, the NSG mice and BALB/c mice were subcutaneously injected with 2×10^6 viable MDA-MB-231 cells and TUBO cells in their right hind limbs, respectively. After the tumor grew to 1 cm in diameter, mice were randomly divided into the groups for each treatment. For no treatment control, 100 μl saline with 1% mouse serum was intravenously injected through tail vein. For treatment groups, 670 pmol/20 g chimeras and/or 5(0 mg/kg 5-fluorouracil (5-FU), or 120 mg/kg carboplatin were also intravenously injected. Tumor sizes were measured in two dimensions every 3 days. Tumor volume (V) was calculated using the following formula: V=(½) S^2×L (S. the shortest dimension; L, the longest dimension). Animals were euthanized when the tumor size was over 2 cm diameters, tumor ulcerated, or became necrotic. For chimera treatment in normal mice, C57BL/6 mice were treated with miR-26a chimera (670 pmol/20 g) everyday for 3 days by intravenous injection. At day 2, 150 mg/kg 5-FU and/or 120 mg/kg carboplatin was injected together with the chimera. Peripheral bloods were collected at day 5 and day 10 after the 5-FU treatment. Complete blood counts were measured by Hemavet 950FS (Drew Scientific, Miami Lakes, Fla., USA).

[2] = tested on: TUBO cells; assay: Binding to TUBO cells by flow cytometry; design: species or system mouse; details: biotinylated
Method: DNA sequences for anti-human KIT aptamer (21) and mouse c-Kit aptamers (22) conjugated with biotin at 3′ were functionalized by short denaturation-renaturation step (95° C. 10 min, 5 min snap-cooling on ice). These DNA sequences were 5′-[…] […]-3′ (SEQ ID NO: 2) for human KIT, 5′-[…]-3′ (SEQ ID NO:3) for mouse c-Kit. These activated aptamers were used for binding assay to the cell lines by flow cytometry. For chimera preparation, human KIT-aptamer or mouse c-Kit-aptamer miR-26a chimera was assembled by three compartments of DNA/RNA hybrid sequences. The sequences were 5′-[…] […]/C3 (SEQ ID NO:4) spacer/CCUAUUCUGG-3′(SEQ ID NO:5) for human KIT aptamer+the part of passenger sequence for miR-26a-5p, 5′-[…]/C3 (SEQ ID NO:6) spacer/CCUAUUCUGG-3′ (SEQ ID NO:7) for mouse cKit aptamer+the part of passenger sequence for miR-26a-5p, 5′-GUUACUUGCACG/TEG (triethylene glycol)-Cholesterol-3′ (SEQ ID NO:8) for the part of sequence for miR-26a-5p+cholesterol, and 5′-[…]-3′ (SEQ ID NO:9) for guide sequence for miR-26a-5p (RNA sequences were represented as italic). The guide sequence for scramble control was […] (SEQ ID NO:10). To protect the oligonucleotide sequences from nuclease degradation, phosphorothioate bonds were introduced between the last 3 nucleotides at the 5′-end of DNA aptamers. The RNA sequences were modified with 2′-fluoro-uridines. […]

[3] = Plasma levels and in vivo imaging of miR-26a chimera in TUBO tumor-bearing BALB/c mice; design: species or system mouse; details: 670 pmol single intravenous dose, qPCR
Method: FIG. 8A is a graph showing the pharmacokinetics of plasma levels of miR-26a chimera and the single dose administration in BALB/c mice bearing mouse TUBO breast cancer cell line. miR-26a chimera (670 pmol/20 g) was injected intravenously. Blood samples were collected at the indicated time points. The concentrations of miR-26a were determined by quantitative PCR using standard curve generated with dose-titrated miR-26a chimera. Data were pooled from three experiments, involving a total of 3 mice. FIG. 8B is a series of pictures showing in vivo imaging of miR-26a chimera conjugated with AF647 dye in BALB/c mice bearing tumor with TUBO cell line. A single dose of miR-26a chimera (670 pmol/20 g) was intravenously injected and followed by serial fluorescence imaging at the indicated time points by IVIS spectrum (Caliper LifeSciences, Waltham, Mass.). Data shown are series images from one experiment. Similar data were obtained from another experiment.

B1: miR-26a chimera: mouse c-Kit DNA aptamer-C3-passenger RNA, passenger RNA-TEG-cholesterol and miR-26a-5p guide strand annealed (SEQ ID NO:6/7, 8, 9) (nucleic acid)
chain 1: GCTCAACGCGGGACGGCTCTCCCATTGAC
chain 2: CCUAUUCUGG
chain 3: GUUACUUGCACG
guide: UUCAAGUAAUCCAGGAUAGGCU
modifications: chemistry not fully specified
In the case of B1, the “carboplatin-induced myelosuppression (figure title)” value ([1]; 670 pmol/20 g i.v. daily for 3 days, FIG. 6) is reported as “protects mice against carboplatin-induced myelosuppression”, the “carboplatin-induced reduction in WBC and RBC” value ([1]; 3 daily injections of chimera) is reported as “prevented reduction in WBC and RBC” and the “carboplatin-induced reduction of platelet on day 5” value ([1]; 3 daily injections of chimera) is reported as “not prevented”. The “drop of platelets from day 5 to day 10” value ([1]; 3 daily injections of chimera) was “prevented further drop of platelets”, the “binding to TUBO cells” value [2] was “nearly identical levels comparable to an anti-c-Kit antibody” and the “time miR-26a chimera could be detected in the blood after injection” value [3] was ≤ 8 h.
